Experimental findings from paper PMC3105061 are described below.

The target of the experiment is fluorescein labeled SecYEG reconstituted in proteoliposomes (E. coli) (UniProt P0AGA2). Description: FRET or BRET; DCFBA-FRET on single proteoliposomes; SecYEG-FM (donor, 488 nm excitation) in PLs, proOmpA(C282)-DhfR-Atto647N (acceptor) in complex with SecB, SecA, NADPH and methotrexate, with or without ATP; in hydrogel of gelator 1 and in suspension; stalled translocation intermediate.
Sequence of UniProt P0AGA2 (P0AGA2 whole entry, chain 1 of 3): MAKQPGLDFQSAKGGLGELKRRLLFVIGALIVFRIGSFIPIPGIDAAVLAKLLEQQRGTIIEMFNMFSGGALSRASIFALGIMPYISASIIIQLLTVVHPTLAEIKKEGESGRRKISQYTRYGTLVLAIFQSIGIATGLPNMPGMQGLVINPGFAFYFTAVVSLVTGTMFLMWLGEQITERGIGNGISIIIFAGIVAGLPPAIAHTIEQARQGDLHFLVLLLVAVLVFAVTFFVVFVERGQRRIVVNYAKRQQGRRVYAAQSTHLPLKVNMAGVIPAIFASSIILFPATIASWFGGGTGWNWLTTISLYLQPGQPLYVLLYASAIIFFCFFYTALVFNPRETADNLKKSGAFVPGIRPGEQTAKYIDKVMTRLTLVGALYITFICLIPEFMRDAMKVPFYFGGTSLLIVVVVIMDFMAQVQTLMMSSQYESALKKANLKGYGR
Sequence of UniProt P0AGA2 (P0AG96 whole entry, chain 2 of 3, further chain): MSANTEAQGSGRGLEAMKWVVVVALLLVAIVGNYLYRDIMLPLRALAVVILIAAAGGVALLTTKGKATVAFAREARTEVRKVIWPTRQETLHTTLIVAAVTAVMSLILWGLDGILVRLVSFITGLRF
Sequence of UniProt P0AGA2 (P0AG99 whole entry, chain 3 of 3, further chain): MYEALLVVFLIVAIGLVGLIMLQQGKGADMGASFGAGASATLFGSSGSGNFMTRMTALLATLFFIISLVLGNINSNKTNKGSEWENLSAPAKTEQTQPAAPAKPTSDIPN

“fusion protein proOmpA(C282)-DhfR-Atto647N” yielded an average FRET efficiency per liposome in the hydrogel compared to suspension of 50%.
